The values below come from US11278600B2, “Human alpha-galactosidase variants” (Codexis, Inc., priority 2014, dated 2022).

Type in all cases: biochemical
Data set [1] can be described thus: HTP-analysis of yeast culture supernatants, no challenge (MUGal hydrolysis). To be noted: yeast supernatant. The method, boiled down:
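Activity read as 4-methylumbelliferyl α-D-galactopyranoside hydrolysis: fluorescence (355/448 nm) after sodium carbonate stop, following 30-180 min at 37° C with 2 mM MUGal stock at pH 4.6–4.8. Enzyme source is unchallenged culture supernatant of INVSc1 yeast expressing GLA variants, grown 66-84 h at 30° C.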

A short description of data set [2]: HTP-analysis of supernatants pretreated with acid (MUGal hydrolysis). To be noted: challenge at pH 4.2, yeast supernatant. The method, boiled down:
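MUGal hydrolysis was tracked by fluorescence (Ex 355 nm, Em 448 nm) after a 30-180 min reaction at 37° C. in pH 4.8 McIlvaine/citrate buffer, stopped with 1 M sodium carbonate. Beforehand, yeast (INVSc1) culture supernatants carrying GLA variants were held 1-3 h at 37° C. in acidic McIlvaine buffer, pH 3.3-4.3.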

Data set [3] in a line: HTP-analysis of supernatants pretreated with base (MUGal hydrolysis). To be noted: yeast supernatant; for Relative Activity of GLA Variants After Challenge at pH 7.1: activity of the variant/activity of WT GLA (SEQ ID NO: 5); for Relative Activity of GLA Variants After Challenge at pH 7.6: activity of the variant/activity of Rd2BB (SEQ ID NO: 10). Summed up: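 GLA variants were secreted by transformed INVSc1 yeast grown 66-84 h at 30° C. Supernatants were exposed to neutral-to-basic buffers (pH 7.0-9.7) at 37° C for 1-18 h, then assayed with MUGal in acidic citrate/McIlvaine buffer, with fluorescence read after quenching.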

The mark [4] stands for this setting: activity of the variant/activity of WT GLA (SEQ ID NO: 5).
[5] abbreviates: activity of the variant/activity of Rd2BB (SEQ ID NO: 10).

B1: 122 (protein)
chain: LDNGLARTPTMGWLHWERFMCNLDCQEEPDSCISEKLFMEMAETMVSEGWKDAGYEYLCIDDCWMAPQRDSEGRLQADPQRFPHGIRQLANYVHSKGLKLGIYADVGNKTCAGFPGSFGYYDIDAQTFADWGVDLLKFDGCYCDSLENLADGYKHMSLALNRTGRSIVYSCEWPLYMWPFQKPNYTEIRQYCNHWRNFADIDDSWKSIKSILDWTSFNQERIVDVAGPGGWNDPDMLVIGNFGLSWNQQVTQMALWAIMAAPLFMSNDLRHISPQAKALLQDKDVIAINQDPLGKQGYQLRQGDNFEVWERPLSGLAWAVAMINRQEIGGPRSYTIAVASLGKGVACNPACFITQLLPVKRKLGFYEWTSRLRSHINPTGTVLLQLENTMQMSKDLLL
modifications: Synthetic Polypeptide sequence of Variant No. 122 of mature Human GLA
Turning to B1, the “Relative Activity of GLA Variants After No Challenge (NC)” value in data set [1] (setting [4]) is “++ (++ = >1.5 to 2.5 relative activity over WT GLA (SEQ ID NO: 5))”. In addition, the “Relative Activity of GLA Variants After Challenge at pH 4.2” value (shortened to “Relative Activity … at pH 4.2”) in data set [2] (setting [4]) is “++ (++ = >1.5 to 2.5 relative activity over WT GLA (SEQ ID NO: 5))”. In addition, the “Relative Activity of GLA Variants After Challenge at pH 7.1” value in data set [3] was “++ (++ = >1.5 to 2.5 relative activity over WT GLA (SEQ ID NO: 5))”.

B2: 197 (protein)
chain: LDNGLARTPTMGWLHWERFMCNLDCQEEPDSCISEKLFMEMAELMVSEGWKDAGYEYLCIDDCWMAPQRDSEGRLQADPQRFPHGIRQLANYVHSKGLKLGIYADVGNKTCAGFPGSFGYYDIDAQTFADWGVDLLKFDGCYCDSLENLADGYKHMSLALNRTGRSIVYSCEWPLYMWPFQKPNYTEIRQYCNHWRNFADIDDSWASIKSILDWTSFNQERIVDVAGPGGWNDPDMLVIGNFGLSWNQQVTQMALWAIMAAPLFMSNDLRHISPQAKALLQDKDVIAINQDPLGKQGYQLRQGDNFEVWERPLSGLAWAVAMINRQEIGGPRSYTIAVASLGKGVACNPGCFITQLLPVKRQLGFYEWASRLRSHINPTGTVLLQLENTMQMSKDLLL
modifications: Synthetic Polypeptide sequence of Variant No. 197 of mature Human GLA
B2: the “Relative Activity of GLA Variants After No Challenge (NC)” value in data set [1] (setting [5]) was “++ (++ = 1.5 to 2.5 relative activity over Rd2BB (SEQ ID NO: 10))”. Also, the “Relative Activity … at pH 4.2” value in data set [2] (setting [5]) is listed as “++ (++ = 1.5 to 2.5 relative activity over Rd2BB (SEQ ID NO: 10))”. Also, the “Relative Activity of GLA Variants After Challenge at pH 7.6” value (shortened to “Relative Activity … at pH 7.6”) in data set [3] is given as “++ (++ = 1.5 to 2.5 relative activity over Rd2BB (SEQ ID NO: 10))”.

B3: 194 (protein)
chain: LDNGLARTPTMGWLHWERFMCNLDCQEEPDSCISEKLFMEMAELMVSEGWKDAGYEYLCIDDCWMAPQRDSEGRLQADPQRFPHGIRQLANYVHSKGLKLGIYADVGNKTCAGFPGSFGYYDIDAQTFADWGVDLLKFDGCYCDSLENLADGYKHMSLALNRTGRSIVYSCEWPLYMWPFQKPNYTEIRQYCNHWRNFADIDDSWRSIKSILDWTSFNQERIVDVAGPGGWNDPDMLVIGNFGLSWNQQVTQMALWAIMAAPLFMSNDLRHISPQAKALLQDKDVIAINQDPLGKQGYQLRQGDNFEVWERPLSGLAWAVAMINRQEIGGPRSYTIAVASLGKGVACNPACFITQLLPVKRKLGFYEWTSRLRSHINPTGTVLLQLENTMQMSKDLLL
modifications: Synthetic Polypeptide sequence of Variant No. 194 of mature Human GLA
With B3, the “Relative Activity of GLA Variants After No Challenge (NC)” value in data set [1] (setting [5]) is given as “++ (++ = 1.5 to 2.5 relative activity over Rd2BB (SEQ ID NO: 10))”. In data set [2] (setting [5]), the “Relative Activity … at pH 4.2” value is recorded as “++ (++ = 1.5 to 2.5 relative activity over Rd2BB (SEQ ID NO: 10))”. In addition, the “Relative Activity … at pH 7.6” value in data set [3] is reported as “++ (++ = 1.5 to 2.5 relative activity over Rd2BB (SEQ ID NO: 10))”.

B4: 35 (protein)
chain: LDNGLARTPTMGWLHWERFMCNLDCQEEPDSCISEKLFMEMAELMVSEGWKDAGYEYLCIDDCWMAPQRDSEGRLQADPQRFPHGIRQLANYVHSKGLKLGIYADVGNKTCAGFPGSFGYYDIDAQTFADWGVDLLKFDGCYCDSLENLADGYKHMSLALNRTGRSIVYSCEWPLYMWPFQKPNYTEIRQYCNHWRNFADIDDSWKSIKSILDWTSFNQERIVDVAGPGGWNDPDMLVIGNFGLSWNQQVTQMALWAIMAAPLFMSNDLRHISPQAKALLQDKDVIAINQDPLGKQGYQLRQGDNFEVWERPLSGLAWAVAMINRQEIGGPRSYTIAVSSLGKGVACNPACFITQLLPVKRKLGFYEWTSRLRSHINPTGTVLLQLENTMQMSKDLLL
modifications: Synthetic Polypeptide sequence of Variant No. 35 of mature Human GLA
B4: in data set [1] (setting [4]), the “Relative Activity of GLA Variants After No Challenge (NC)” value is given as “++ (++ = >1.5 to 2.5 relative activity over WT GLA (SEQ ID NO: 5))”. The “Relative Activity … at pH 4.2” value in data set [2] (setting [4]) is “++ (++ = >1.5 to 2.5 relative activity over WT GLA (SEQ ID NO: 5))”. In data set [3], the “Relative Activity of GLA Variants After Challenge at pH 7.1” value is given as “++ (++ = >1.5 to 2.5 relative activity over WT GLA (SEQ ID NO: 5))”.

B5: 198 (protein)
chain: LDNGLARTPTMGWLHWERFMCNLDCQEEPDSCISEKLFMEMAELMVSEGWKDAGYEYLCIDDCWMAPQRDSEGRLQADPQRFPHGIRQLANYVHSKGLKLGIYADVGNKTCAGFPGSFGYYDIDAQTFADWGVDLLKFDGCYCDSLENLADGYKHMSLALNRTGRSIVYSCEWPLYMWPFQKPNYTEIRQYCNHWRNFADIDDSWASIKSILDWTSFNQERIVDVAGPGGWNDPDMLVIGNFGLSWNQQVTQMALWAIMAAPLFMSNDLRHISPQAKALLQDKDVIAINQDPLGKQGYQLRQGDNFEVWERPLSGLAWAVAMINRQEIGGPRSYTIAVASLGKGVACNPGCFITQLLPVKRKLGFYEWDSRLRSHINPTGTVLLQLENTMQMSKDLLL
modifications: Synthetic Polypeptide sequence of Variant No. 198 of mature Human GLA
For the molecule B5, the “Relative Activity of GLA Variants After No Challenge (NC)” value in data set [1] (setting [5]) is “++ (++ = 1.5 to 2.5 relative activity over Rd2BB (SEQ ID NO: 10))”. Besides, the “Relative Activity … at pH 4.2” value in data set [2] (setting [5]) is given as “++ (++ = 1.5 to 2.5 relative activity over Rd2BB (SEQ ID NO: 10))”. The “Relative Activity … at pH 7.6” value in data set [3] is recorded as “+++ (+++ = >2.5 relative activity over Rd2BB (SEQ ID NO: 10))”.

B6: 196 (protein)
chain: LDNGLARTPTMGWLHWERFMCNLDCQEEPDSCISEKLFMEMAELMVSEGWKDAGYEYLCIDDCWMAPQRDSEGRLQADPQRFPHGIRQLANYVHSKGLKLGIYADVGNKTCAGFPGSFGYYDIDAQTFADWGVDLLKFDGCYCDSLENLADGYKHMSLALNRTGRSIVYSCEWPLYMWPFQKPNYTEIRQYCNHWRNFADIDDSWASIKSILDWTSFNQERIVDVAGPGGWNDPDMLVIGNFGLSWNQQVTQMALWAIMAAPLFMSNDLRHISPQAKALLQDKDVIAINQDPLGKQGYQLRQGDNFEVWERPLSGLAWAVAMINRQEIGGPRSYTIAVASLGKGVACNPGCFITQLLPVKRKLGFYEWTSRLRSHINPTGTVLLQLENTMQMSKDLLL
modifications: Synthetic Polypeptide sequence of Variant No. 196 of mature Human GLA
With B6, the “Relative Activity of GLA Variants After No Challenge (NC)” value in data set [1] (setting [5]) is “+ (+ = 0.5 to 1.5 relative activity over Rd2BB (SEQ ID NO: 10))”. Besides, the “Relative Activity … at pH 4.2” value in data set [2] (setting [5]) is recorded as “+ (+ = 0.5 to 1.5 relative activity over Rd2BB (SEQ ID NO: 10))”. In addition, the “Relative Activity … at pH 7.6” value in data set [3] is reported as “+ (+ = 0.5 to 1.5 relative activity over Rd2BB (SEQ ID NO: 10))”.

B7: 195 (protein)
chain: LDNGLARTPTMGWLHWERFMCNLDCQEEPDSCISEKLFMEMAELMVSEGWKDAGYEYLCIDDCWMAPQRDSEGRLQADPQRFPHGIRQLANYVHSKGLKLGIYADVGNKTCAGFPGSFGYYDIDAQTFADWGVDLLKFDGCYCDSLENLADGYKHMSLALNRTGRSIVYSCEWPLYMWPFQKPNYTEIRQYCNHWRNFADIDDSWSSIKSILDWTSFNQERIVDVAGPGGWNDPDMLVIGNFGLSWNQQVTQMALWAIMAAPLFMSNDLRHISPQAKALLQDKDVIAINQDPLGKQGYQLRQGDNFEVWERPLSGLAWAVAMINRQEIGGPRSYTIAVASLGKGVACNPACFITQLLPVKRKLGFYEWTSRLRSHINPTGTVLLQLENTMQMSKDLLL
modifications: Synthetic Polypeptide sequence of Variant No. 195 of mature Human GLA
Take B7: the “Relative Activity of GLA Variants After No Challenge (NC)” value in data set [1] (setting [5]) is reported as “+ (+ = 0.5 to 1.5 relative activity over Rd2BB (SEQ ID NO: 10))”. Besides, the “Relative Activity … at pH 4.2” value in data set [2] (setting [5]) is given as “+ (+ = 0.5 to 1.5 relative activity over Rd2BB (SEQ ID NO: 10))”. Besides, the “Relative Activity … at pH 7.6” value in data set [3] is “+ (+ = 0.5 to 1.5 relative activity over Rd2BB (SEQ ID NO: 10))”.
